The values below come from article PMC7064642.

The target of the test is importin-α/β carrier protein complex (α/β importin heterodimer). The test is described as follows: MST; importin β labelled with Cy3; α/β importin heterodimers at equimolar 50 nM; MNT serially diluted from 1 µM (MNT_(N-EGF)) or 4 µM (MNT_(N-affibody), MNT_(C-EGF)); 20 mM HEPES pH 7.4, 110 mM KCl, 5 mM NaHCO3, 5 mM MgCl2, 0.1 mM CaCl2, 1 mM EGTA, 1 mM DTT; Monolith NT.115.

On to “6His-DTox-HMP-NLS-EGF modular nanotransporter (MNT_(C-EGF))”, for which the Kd is 127 nM.

In turn, “EGF-6His-DTox-HMP-NLS modular nanotransporter (MNT_(N-EGF))” displayed a Kd of 15.8 nM.
